B1: H18 sdAb (VHH)
VHH: QVQLVESGGGLVQAGGSLRLSCTASGSIESINRMAWYRQAPGQQREFVARISKGGSTNYPDSVKGRFTISRDNAKNTVYLQMNSLKPEDTAVYYCAAGPVWEQFWGQGTQVTVSS
notes: also called H18 VHH
B2: Rh34 sdAb (VHH)
VHH: QVKLEESGGGLVQAGGSLRLSCAASGRTISLYAVGWFRRAPGKEREFVAAISWTDSSTYYADSVKGRFTISRDNAKNTVYLGMNSLNPEDTAVYYCAADVSIRGLQKYEYDYWGQGTQVTVSS
notes: also called Rh34 VHH
B3: Rh46 sdAb (VHH)
VHH: QVKLEESGGGLVQAGGSLRLSCTASTRTFSSYIMGWFRQAPGKERELVAAISWSGRMTHYADSVKGRFAISRDNAKNTVYLQMNVLKPEDTAIYSCAADRTTAWGAPRSQYDSWGQGTQVTVSS
notes: also called Rh46 VHH
B4: R11-H5 (VHH)
VHH: QVQLVESGGGLVQPGGSLRLSCAGPGFLLRSNTMGWYRQAPGKERELVAFIRPSGLTNYNDAVQGRFTISRDNSKNTLYLQMNSLRAEDTAVYYCHTRPPFQRDSWGQGTLVTVSS
B5: R11-H6 (VHH)
VHH: B4 VHH with S74A, L78V
B6: M79-H4 (VHH)
VHH: QVQLVESGGGLVQPGGSLRLSCAASGSTFSSSSVGWYRQAPGQQRELVAAITSGGSTNTADSVKGRFTISRDNSKNTLYLQMNSLRAEDTAVYYCNVAGRNWVPISRYSPGPYWGQGTLVTVSS
B7: M79-H2 (VHH)
VHH: B6 VHH with Q1E, Q43K, Q44G, R45L, A49S
B8: M79-H3 (VHH)
VHH: B6 VHH with Q1E, Q43K, A49S
B9: M79-H5 (VHH)
VHH: B6 VHH with S74A, L78V
B10: R28-H2 (VHH)
VHH: EVQLVESGGGLVQPGGSLRLSCAASGRTFIAYAMGWFRQAPGKEREFVSAITNFAGGTTYYADSVKGRFTISRDNSKNTLYLQMNSLRAEDTAVYYCAADRSAQTMRQVRPVLPYWGQGTLVTVSS
B11: R28-H1 (VHH)
VHH: B10 VHH with E44G, R45L
B12: R28-H5 (VHH)
VHH: B10 VHH with E1Q, S49A, S76A, N78T, L80V
B13: R28-H4 (VHH)
VHH: B10 VHH with E1Q, S49A, S76A, N78T
B14: R28-H3 (VHH)
VHH: B10 VHH with E1Q, S49A
B15: Rh46-H2 (VHH)
VHH: EVQLVESGGGLVQPGGSLRLSCAASTRTFSSYIMGWFRQAPGKERELVSAISWSGRMTHYADSVKGRFTISRDNSKNTLYLQMNSLRAEDTAVYYCAADRTTAWGAPRSQYDSWGQGTLVTVS

Positions count from the first letter of the chain named.

In the first test the target is T1, rhesus serum albumin (rhesus, UniProt Q28522 17-600).
T1 construct: also called RhSA
Description: SPR, single cycle kinetics, pH 7.4. (SPR reads the build-up and loss of mass on a sensor chip optically.)
By Kd is commonly meant the concentration at which binding is half-saturated. Lower therefore signals higher affinity. On to B1, for which the Kd came to 0.048 µM.
On the same count and under the same terms, then B2, with 0.333 µM; and B3, with 0.081 µM.

The next test addresses T2, human serum albumin (human, UniProt P02768 25-609).
T2 construct: also called HSA
Description: SPR, single cycle kinetics, pH 7.4.
Turning to B1, the Kd was 0.034 µM.
Same read-out and setting: with B2 the figure was 0.286 µM; with B3, 0.08 µM.

A further test concerns the target T1, rhesus serum albumin. Description: SPR, single cycle kinetics, pH 5.5.
For B1, the Kd is 0.0422 µM.
B2 returned a Kd of 0.167 µM.
Still for that read-out and setting: with B3 the figure was 0.0296 µM; with B4, 0.525 µM; with B5, 0.511 µM.
The same measure, in the same setting: with B6 the figure was 0.0029 µM.
Take B7: binding was put at a Kd of 0.0026 µM.
The same measure, in the same setting: with B8 the figure was 0.0029 µM.
The molecule B9 returned a Kd of 0.0042 µM.
With B10, the Kd was 0.668 µM.
In turn, B11 returned a Kd of 0.0287 µM.
Turning to B12, the Kd is 0.0073 µM. This Kd is about 3.9-fold lower than that of the molecule before.
Consider B13, for which binding was characterised by a dissociation constant (Kd) of 0.341 µM.
Same read-out and setting: with B14 the figure was 1.27 µM.
The same measure, in the same setting: then B15, with 0.0441 µM.

Another test has as its target T3, rat serum albumin (rat, UniProt P02770 25-608).
T3 construct: also called RSA
As to the kind of experiment: SPR, single cycle kinetics, pH 5.5.
B4 registered a Kd of 0.16 µM.
As to B5, the Kd was determined as 0.123 µM.
In the case of B6, binding was characterised by a dissociation constant (Kd) of 0.0088 µM.
Still for that read-out and setting: then B7, with 0.0059 µM; and B8, with 0.0122 µM.
Same read-out and setting: with B9 the figure was 0.0066 µM; with B10, 0.001 µM; with B11, 0.0065 µM.
Still for that read-out and setting: with B12 the figure was 0.0035 µM; with B13, 0.0053 µM.
As to B14, binding was put at a Kd of 0.0018 µM.

The target of another test is T2, human serum albumin. Description: SPR, single cycle kinetics, pH 5.5.
B1 had a dissociation constant Kd of 0.0462 µM.
On the same count and under the same terms, then B2, with 0.129 µM; and B3, with 0.0413 µM; and B4, with 0.0982 µM.
Regarding B5, the Kd is 0.0675 µM.
In the case of B6, the Kd came out at 0.0084 µM.
B7 had a Kd of 0.0065 µM.
The same measure, in the same setting: then B8, with 0.0096 µM.
Still for that read-out and setting: with B9 the figure was 0.0081 µM.
Molecule B10 showed a Kd of 0.0066 µM. The Kd values of the last two molecules are within 1.5-fold of each other.
On the same count and under the same terms, then B11, with 0.0152 µM.
As to B12, the affinity, expressed as Kd, was 0.002 µM.
Molecule B13 came in with a Kd of 0.0516 µM.
B14 returned a Kd of 0.0472 µM.
With B15, binding was characterised by a dissociation constant (Kd) of 0.0873 µM.

The next test addresses T1, rhesus serum albumin. Description: SPR, single cycle kinetics, pH 5.5. The source holds these as a separate data set.
The molecule B1 had a Kd of 0.042 µM. That is a double-digit nanomolar value.
On to B2, for which the affinity, expressed as Kd, was 0.167 µM.
On the same count and under the same terms, then B3, with 0.03 µM.

For a further test, the target named is T2, human serum albumin. Description: SPR, single cycle kinetics, pH 5.5. The source holds these as a separate data set.
B1 returned a Kd of 0.046 µM.
Same read-out and setting: then B2, with 0.129 µM; and B3, with 0.041 µM.

In the next test the target is T1, rhesus serum albumin. As to the kind of experiment: SPR, single cycle kinetics, pH 7.4. The source holds these as a separate data set.
Turning to B1, the Kd was 0.0476 µM. This counts as double-digit nanomolar.
Still for that read-out and setting: then B2, with 0.333 µM.
Still for that read-out and setting: with B3 the figure was 0.0808 µM; with B4, 0.643 µM; with B5, 0.561 µM.
B6 had a Kd of 0.0387 µM.
On the same count and under the same terms, then B7, with 0.0621 µM; and B8, with 0.0367 µM; and B9, with 0.0865 µM.
B10 gave a Kd of 2.63 µM.
Turning to B11, binding was put at a Kd of 2.71 µM.
Still for that read-out and setting: with B12 the figure was 0.145 µM.
On the same count and under the same terms, with B13 the figure was 1.74 µM; with B14, 0.625 µM; with B15, 0.456 µM.

For a further test, the target named is T3, rat serum albumin. As to the kind of experiment: SPR, single cycle kinetics, pH 7.4.
For the molecule B1, the binding result is “no binding”.
Still for that read-out and setting: then B2, with “no binding”.
As to B3, the binding result is “no binding”.
Molecule B4 registered a Kd of 0.196 µM.
The molecule B5 yielded a Kd of 0.151 µM.
For the molecule B6, the Kd turned out to be 0.01 µM.
On the same count and under the same terms, with B7 the figure was 0.0104 µM.
As for B8, binding was put at a Kd of 0.0087 µM.
The same measure, in the same setting: then B9, with 0.0202 µM.
Still for that read-out and setting: with B10 the figure was 0.0041 µM.
Molecule B11 showed a Kd of 0.0053 µM.
The same measure, in the same setting: with B12 the figure was 0.0004 µM; with B13, 0.0011 µM; with B14, 0.0024 µM.
Regarding B15, the binding result is recorded as “no binding”.

A further test addresses T2, human serum albumin. As to the kind of experiment: SPR, single cycle kinetics, pH 7.4. The source holds these as a separate data set.
In the case of B1, binding was characterised by a dissociation constant (Kd) of 0.0339 µM.
For the molecule B2, the affinity, expressed as Kd, was 0.286 µM.
The same measure, in the same setting: then B3, with 0.0801 µM; and B4, with 0.307 µM; and B5, with 0.252 µM.
Same read-out and setting: then B6, with 0.0589 µM; and B7, with 0.0762 µM; and B8, with 0.0533 µM.
Same read-out and setting: then B9, with 0.103 µM.
B10 registered a Kd of 0.147 µM.
Same read-out and setting: then B11, with 0.162 µM; and B12, with 0.0111 µM.
On the same count and under the same terms, with B13 the figure was 0.0115 µM; with B14, 0.0513 µM.
The same measure, in the same setting: then B15, with 0.426 µM.

The values above are taken from patent US20210253679A1 (NATIONAL RESEARCH COUNCIL OF CANADA, published 2021).
